We go through 8 molecules from patent US20240239881A1 (Innovent, published 2024).

Numbering of substitutions follows the chain as printed.

T1: recombinant biotinylated hAngiopoietin-2 protein (R&D, Cat. No.: BT623B/CF) (human, UniProt O15123 19-496, limits assumed, biotinylated (sites not given))
T1 construct: Bought protein; also called Biotin Ang2; human biotin Ang2 protein
T1 sequence: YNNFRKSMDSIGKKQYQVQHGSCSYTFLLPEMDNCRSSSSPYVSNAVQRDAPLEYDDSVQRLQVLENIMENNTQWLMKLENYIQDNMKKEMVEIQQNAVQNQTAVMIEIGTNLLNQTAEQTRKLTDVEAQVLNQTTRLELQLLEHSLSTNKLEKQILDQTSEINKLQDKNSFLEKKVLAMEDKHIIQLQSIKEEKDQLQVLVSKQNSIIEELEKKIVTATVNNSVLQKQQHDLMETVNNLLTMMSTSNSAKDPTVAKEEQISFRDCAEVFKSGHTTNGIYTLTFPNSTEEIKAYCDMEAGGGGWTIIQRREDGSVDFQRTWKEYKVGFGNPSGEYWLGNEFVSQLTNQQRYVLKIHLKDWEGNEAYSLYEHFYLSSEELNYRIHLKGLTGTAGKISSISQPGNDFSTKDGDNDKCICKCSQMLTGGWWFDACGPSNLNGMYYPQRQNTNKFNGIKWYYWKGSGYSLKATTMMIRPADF

T2: Human Ang1 (human, UniProt Q15389 20-498, limits assumed)
T2 construct: also called hAng1
T2 sequence (looked up): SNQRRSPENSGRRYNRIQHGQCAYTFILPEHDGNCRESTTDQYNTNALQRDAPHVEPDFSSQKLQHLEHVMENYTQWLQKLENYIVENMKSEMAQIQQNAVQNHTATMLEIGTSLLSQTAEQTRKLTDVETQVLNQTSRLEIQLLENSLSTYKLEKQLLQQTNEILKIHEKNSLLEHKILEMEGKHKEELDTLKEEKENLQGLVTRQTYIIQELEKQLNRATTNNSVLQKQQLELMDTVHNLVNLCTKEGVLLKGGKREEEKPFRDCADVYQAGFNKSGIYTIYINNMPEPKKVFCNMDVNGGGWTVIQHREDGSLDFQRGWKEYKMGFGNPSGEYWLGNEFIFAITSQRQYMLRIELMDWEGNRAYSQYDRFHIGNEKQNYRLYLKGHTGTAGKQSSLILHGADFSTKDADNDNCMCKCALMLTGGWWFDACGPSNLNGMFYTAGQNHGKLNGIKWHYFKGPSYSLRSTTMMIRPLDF

T3: Human ang2 protein (Sino Biological, Cat No.: 10691-H08H) (human, UniProt O15123 19-496)
T3 construct: Bought protein; also called recombinant hAng2; human hAng2
T3 sequence: T1 sequence

T4: human Ang2 (human, UniProt O15123 19-496, limits assumed)
T4 construct: also called hAng2; h Ang2
T4 sequence: T1 sequence

B1: chimeric antibody 81H10 (antibody, human IgG1, kappa, V domains shown)
VH: EVKLEESGGGLVQPGGSMKLSCVASGFTFSNYWMNWVRQSPEKGLEWVAEIRLKSNNYATHYAESVKGRFTISRDVSKSSVYLQMNNLRTEDTGIYYCTDTAPFAYWGQGTLVTVSA
VL: DIVMTQSHKFMSTSVGDRVSITCKASQDVGTDVAWYQQKPGQSPKLLIYWASTRHTGVPDRFTGSGSGTDFTLTISNVQSEDLSDYFCQQYSSYPLTFGGGTKLEIKR
B2: affinity matured antibody Amhz81H10.4.30 (antibody, human IgG1, kappa, V domains shown)
VH: EVQLVESGGGLVKPGGSLRLSCAASGFTFRAAWMNWVRQAPGKGLEWVAEIRLKSNHYETHYAESVKGRFTISRDVSKNTVYLQMNSLKTEDTAVYYCTDTQPGAYWGQGTLVTVSS
VL: DIQMTQSPSSLSASVGDRVTITCKASQYVFTDVAWYQQKPGKAPKLLIYWASTRWTGVPSRFSGSGSGTDFTLTISSLQPEDFATYYCQQTSSYPLTFGGGTKVEIKR
B3: affinity matured antibody Amhz81H10.4.49 (antibody, human IgG1, kappa, V domains shown)
VH: B2 VH with R30Q, A31N, A32Y, M34A, H57N, E59A, Q102T, G104A
VL: B2 VL with Y28D, F30W, A51G, S92N, S93I
notes: also called Am81H10.4.49
B4: chimeric antibody 86E9 (antibody, human IgG1, kappa)
heavy: not shown
light: DIVMTQSHKFLSTSVGARVSITCKASQDVGTDVAWYQQKPGQSPKLLIYWASTRHTGVPDRFTGSGSGTDFTLTISNVQSEDLSDYFCQQYSSYPLTFGGGTKLEIKRTVAAPSVFIFPPSDEQLKSGTASVVCLLNNFYPREAKVQWKVDNALQSGNSQESVTEQDSKDSTYSLSSTLTLSKADYEKHKVYACEVTHQGLSSPVTKSFNRGEC
B5: chimeric antibody 107H7 (antibody, human IgG1, kappa)
heavy: not shown
light: B4 light with S7T, H8P
B6: parental murine hybridoma antibody of chimeric antibody 86E9 (antibody, V domains shown)
VH: B1 VH with K3M, E5V, S80G
VL: DIVMTQSHKFLSTSVGARVSITCKASQDVGTDVAWYQQKPGQSPKLLIYWASTRHTGVPDRFTGSGSGTDFTLTISNVQSEDLSDYFCQQYSSYPLTFGGGTKLEIK
notes: Murine antibody from the hybridoma; also called 86E9 (murine hybridoma antibody)
B7: parental murine hybridoma antibody of chimeric antibody 81H10 (antibody, V domains shown)
VH: B1 VH
VL: B6 VL with L11M, A17D
notes: Murine antibody from the hybridoma; also called 81H10 (murine hybridoma antibody)
B8: parental murine hybridoma antibody of chimeric antibody 107H7 (antibody, V domains shown)
VH: B1 VH with K3M, E5V, S80G
VL: B6 VL with S7T, H8P
notes: Murine antibody from the hybridoma; also called 107H7 (murine hybridoma antibody)

What is called EC50 is the concentration giving half of the maximal effect. The IC50 is the concentration at which inhibition is half-maximal. Usually Kd stands for the constant that tells how readily two partners part at equilibrium. Read a low Kd as higher affinity.

The target in one assay is T1, recombinant biotinylated …. The assay is described as follows: ELISA: biotin Ang2 (R&D BT623B/CF) captured on coated streptavidin (SA), antibody titrated, anti-human IgG-HRP, OD450-OD620, GraphPad fit. The protocol: The binding of 81H10 and hz81H10.4 of the present invention to human biotin Ang2 protein was measured in an SA-biotin Ang2-based ELISA assay.
SA protein (Thermo Fisher) was diluted to 1 μg/ml with PBS, and was coated onto a microtiter plate at 100 μl/well at 4° C. overnight. After three washes with PBST, the plate was blocked with 5% BSA for 1 h. Biotin Ang2 (R&D, Cat. No. BT623B/CF) was incubated at a concentration of 0.5 μg/ml for 1 h. Gradient diluted antibodies (maximum concentration 20 nM, 1:3 serial dilution) were added to the microtiter plate and incubated for 2 h, and the plate was washed three times with PBST. […] Then the plate was washed for 6 times with PBST. Chromogenic reaction was performed with 100 ul TMB and terminated with 100 ul 2N sulfuric acid. The reading of OD₄₅₀-OD₆₂₀ was taken by microplate reader. The concentration-dependent curve was fitted with GraphPad based on the OD₄₅₀-OD₆₂₀.
For orientation: In an ELISA, binding on a coated surface is turned into a signal by an enzyme label.
With B1, the EC50 worked out at 0.0142 nM.

The next assay has as its target T2, Human Ang1. Description: ForteBio BLI, antibody on AHQ sensor. The protocol:
(§1) The equilibrium dissociation constants (KD) of the above exemplary antibodies of the present invention binding to human Ang2 (h Ang2), cynomolgus monkey Ang2 (cAng2), murine Ang2 (mAng2), and human Ang1 (hAng1) were determined using the biological optical interferometry (ForteBio) assay.
(§2) The ForteBio affinity assay was performed according to the existing method (Estep, P et al., High throughput solution-based measurement of antibody-antigen affinity and epitope binning. MAbs, 2013.5 (2): p. 270-8). Briefly, the sensor was equilibrated in the assay buffer off-line for 30 min, followed by on-line detection for 60 s to establish the baseline. Then the purified antibodies obtained as described above were loaded on-line onto an AHQ sensor (ForteBio) for ForteBio affinity assay. The sensors with loaded antibodies were exposed to 100 nM of hAng2, cAng2, mAng2, and hAng1 antigens for 5 min, and then were transferred into the assay buffer for dissociation for 5 min to determine the dissociation rate. Kinetic analysis was performed using a 1:1 binding model.
(In general: BLI is a label-free optical method that tracks binding on a fibre tip over time.)
In the case of B2, the binding result is “no binding (tested: 100 nM)”.

Regarding B3, the binding result was “no binding (tested: 100 nM)”.

Regarding B4, the binding result was “no binding (tested: 100 nM)”.

For the molecule B5, the binding result is “no binding (tested: 100 nM)”.

Take B1: the binding result is “no binding (tested: 100 nM)”.

In another assay the target is T3, Human ang2 protein (Sino Biological, …). Description: ELISA: human ang2 protein (Sino Biological 10691-H08H) coated at 0.25 ug/ml, antibody titrated, HRP-conjugated secondary antibody, OD450-OD620, GraphPad fit. As for the experimental part:
The binding of the respective parental murine hybridoma antibodies of the above exemplary chimeric antibodies 81H10, 86E9, and 107H7 to human hAng2 was measured in an ELISA-based assay.
Human ang2 protein (Sino Biological, Cat No.: 10691-H08H) was diluted to 0.25 μg/ml with PBS, and was coated onto a microtiter plate at 100 μl/well at 4° C. overnight. After three washes with PBST, the plate was blocked with 5% BSA. Gradient diluted antibodies (maximum concentration 20 nM, 1:2 serial dilution) were added to the microtiter plate and incubated for 2 h. After three washes with PBST, a 1:10000 dilution of anti-mouse IgG, HRP-conjugated antibody (Cell Signaling, Cat. No. 7076P2) was added, and after incubation for 60 min, the plate was washed six times with PBST. Chromogenic reaction was performed with 100 ul TMB and terminated with 100 ul 2N sulfuric acid. The reading of OD₄₅₀-OD₆₂₀ was taken by microplate reader. The concentration-dependent curve was fitted with GraphPad based on the OD₄₅₀-OD₆₂₀.
B6 registered a 50% effective concentration (EC50) of 0.434 nM.

B7 displayed a concentration for a half-maximal effect (EC50) of 0.248 nM.

In the case of B8, a half-maximal response (EC50) required 0.231 nM.

Another assay concerns the target T1, recombinant biotinylated …. Description: blocking ELISA: antibody titrated against biotinylated hAng2 (300 ng/ml final); blocked binding to coated hTie2 protein; Avidin-HRP detection. The protocol: The abilities of 81H10, 86E9, 107H7, hz81H10.4, Amhz81H10.4.30, Amhz81H10.4.49, and the control antibodies Nesvacumab and faricimab to block the binding of human Ang2 to hTie2 were determined by ELISA. Faricimab is a bispecific antibody drug undergoing a clinical trial and developed by Roche, which targets both angiopoietin-2 (Ang-2) and VEGF-A.
Then the plate was blocked using 5% BSA for 1 h. The biotinylated antigen, recombinant biotinylated hAngiopoietin-2 protein (R&D, Cat. No.: BT623B/CF), was diluted to 600 ng/ml, and was added into the microtiter plate at 50 μl/well. The antibodies (81H10, 86E9, 107H7, hz81H10.4, Amhz81H10.4.30 and Amhz81H10.4.49) prepared as described above were gradiently diluted with a total of 8 or 12 dilution points starting from the highest concentration, and then added to the microtiter plate at 50 μl/well, and incubated in PBS on ice for 30 min. Then, 50 ul of antigen solution was added to the microtiter plate, in which the final antigen concentration was 300 ng/ml. The plate containing the antigen-antibody mixture was incubated for 90 min. After three washes with PBS, the supernatant was discarded, and Avidin-HRP (Invitrogen) diluted at 1:10000 was added at 100 μl/well, then incubated at room temperature for 30 min. PBS was used to wash the plate six times. Then TMB chromogen solution (solarbio) was added at 100 ul/well to allow for chromogenic reaction for 1 min, then the reaction was terminated with the addition of stop solution (solarbio) at 100 ul/well.
Turning to B2, the IC50 came to 4.91 nM.

Regarding B3, the IC50 is 0.506 nM.

In the case of B4, the IC50 amounted to 5.29 nM.

B5: the half-inhibitory concentration (IC50) was 9.15 nM.

Turning to B1, the concentration for half-maximal inhibition (IC50) is 1.32 nM.

The target of another assay is T4, human Ang2. The assay is described as follows: ForteBio BLI, antibody on AHQ sensor, 100 nM antigen, 1:1 model. The protocol:
as §1, §2
The molecule B2 returned an equilibrium dissociation constant (Kd) of 23.2 nM.

Take B3: binding was put at a Kd of 0.647 nM.

B4: the Kd came to 7.63 nM.

B5: the affinity, expressed as Kd, was 7.75 nM.

For the molecule B1, the equilibrium dissociation constant (Kd) came out at 6.92 nM.
